Literature values, collected in publication PMC3164694.

Tests used:
TIMP-2 (Homo sapiens) = TIMP-2 (Homo sapiens) (UniProt P16035)
MMP-2 (Homo sapiens) = MMP-2 (Homo sapiens) (UniProt P08253)
Sequence of MMP-2 (Homo sapiens) (P08253 110-660): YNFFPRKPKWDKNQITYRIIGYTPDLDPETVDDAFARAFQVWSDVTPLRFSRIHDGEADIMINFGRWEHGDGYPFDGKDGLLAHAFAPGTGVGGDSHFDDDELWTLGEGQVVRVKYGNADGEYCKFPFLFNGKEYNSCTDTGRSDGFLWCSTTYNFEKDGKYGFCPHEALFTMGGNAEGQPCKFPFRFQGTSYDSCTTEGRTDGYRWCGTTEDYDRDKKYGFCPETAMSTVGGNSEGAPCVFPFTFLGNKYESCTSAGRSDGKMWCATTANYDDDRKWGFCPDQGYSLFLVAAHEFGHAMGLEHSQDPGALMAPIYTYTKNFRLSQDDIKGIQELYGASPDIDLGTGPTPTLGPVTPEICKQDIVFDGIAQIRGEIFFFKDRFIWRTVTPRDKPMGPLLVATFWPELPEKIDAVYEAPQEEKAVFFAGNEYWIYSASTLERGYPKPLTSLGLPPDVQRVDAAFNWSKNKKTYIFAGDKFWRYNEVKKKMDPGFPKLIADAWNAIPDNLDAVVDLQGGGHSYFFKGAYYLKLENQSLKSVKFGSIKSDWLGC

| Kd (TIMP-2 (Homo sapiens)) [nM] | Kd (MMP-2 (Homo sapiens)) [nM] | Substance |
| --- | --- | --- |
| 2.54 |  | MT1-MMP (from UniProt P50281) |
|  | 0.56 | MT1-MMP/TIMP-2 complex (from UniProt P50281) |
